Laboratory results from US20210290676A1, “IMPROVING THE EFFICACY AND SAFETY OF ADOPTIVE CELLULAR THERAPIES” (University of Southern California, priority 2018, published 2021).

Test: Leukapheresis with and without mobilization and manufacturing of CAR-T/TCR-T cells from cancer patients
Format: in vivo, human
Settings: mobilization prior to leukapheresis
Method: A study is conducted to compare the generation of cell therapy products from cancer patients who have received 2 or more cycles of prior chemotherapy. Patients with different types of different cancers (e.g., diffuse large B cell lymphoma, acute B-ALL, CLL, multiple myeloma, breast cancer, ovarian cancer, lung cancer etc.) are eligible. Leukapheresis products are collected from the subjects with and without mobilization with Perixafor (0.24 mg/kg subcutaneously daily on days 1-3). T cells are isolated and used for manufacturing of CAR-T and TCR-T cells using lentiviral mediated gene transduction as described in the preceding sections.

B1: G-CSF: cytokine, G-CSF (filgrastim, Amgen) (protein, chains of the INN, looked up)
chain: MTPLGPASSLPQSFLLKCLEQVRKIQGDGAALQEKLCATYKLCHPEELVLLGHSLGIPWAPLSSCPSQALQLAGCLSQLHSGLFLYQGLLQALEGISPELGPTLDTLQLDVADFATTIWQQMEELGMAPALQPTQGAMPAFASAFQRRAGGVLVASHLQSFLEVSYRVLRHLAQP
yield of leukapheresis product for generation of CAR-T cells: improve the yield
